The results in this text go back to US20250027068.

Sequences and labels used below:
B1: PRT-628 (protein)
chain: MQITSVWTKGVTPLTPEQFRYNNEDVIHAPYLAHQGWYDITKAFDGKDNLLCGAATAGNMLHWWFDQNKEEIEAYLKKHPEKQKIIFNNQELFDLKAAIDTKDSQTNSQLFNYFRDKAFPNLSARQLGVMPDLVLDMFINGYYLNVFKTQSTDVNRPYQDKDKRGGIFDAVFTRGDQTTLLTARHDLKNKGLNDISTIIKQELTEGRALALSHTYANVSISHVINLWGADFNAEGNLEAIYVTDSDANASIGMKKYFVGINAHGHVAISAKKIEGENIGAQVLGLFTLSSGQDIWQQLSLEHHHHHH
B2: PRT-679 (protein)
chain: MQITSVWTKGVTPLTPEQFRYNNEDVIHAPYLAHQGWYDITKTFDGKDNLLCGAATAGNMLHWWFDQNKTEIEAYLSKHPEKQKIIFNNQELFDLKEAINTKDSQTNSQLFNYFRDKAFPNLSARQLGVMPDLVLDMFINGYYLNVFKTQSTDVNRPYQDKDKRGGIFDAVFTRGDQTTLLTARHDLKNKGLNEISTIIKQELTEGKALALSHTYANVSISHVINLWGADFNAEGNLEAIYVTDSDANASIGMKKYFVGINAHGHVAISAKKIEGENIGAQVLGLFTLSSGKDIWQKLSLEHHHHHH
B3: PRT-648 (protein)
chain: MQITSVWTKGVTPLTPEQFRYNNEDVIHAPYLAHQGWYDITKAFDGKDNLLCGAATAGNMLHWWFDQNKTEIEAYLSKHPEKQKIIFNNQYLFDLKAAIDTKDSQTNSQLFNYFRDKAFGNLSARQLGVMPDLVLDMFINGYYLNVNKTQSTDVNRPYQKPDKRGGIFDAVFTRGDQTTLLTARHDLKNKGLNDISTIIKQELTEGRALALSHTYANVSISHVINLWGADFNAEGNLEAIYVTDSDANASIGMKKYFVGINAHGHVAISAKKIEGENIGAQVLGLFTLSSGKDIWQKLSLEHHHHHH
B4: PRT-652 (protein)
chain: MQITSVWTKGVTPLTPEQFRYNNEDVIHAPYLAHQGWYDITKAFDGKDNLLCGAATAGNMLHWWFDQNKTEIEAYLSKHPEKQKIIFNNQELFDLKAAIDTKDSQTNSQLFNYFRDKAFPNLSARQLGVMPDLVLDMFINGYYLNVFKTQSTDVNRPYQDKDKRGGIFDAVFTRGDQTTLLTARHDLKNKGLNDISTIIKQELTEGRALALSHGTANGGYSHVINLWGADFNAEGNLEAIYVTDSDANASIGMKKYFVGINAHGHVAISAKKIEGENKGAQVLGLFTLSSGKDIWQKLSLEHHHHHH
B5: PRT-656 (protein)
chain: MQITSVWTKGVTPLTPEQFRYNNEDVIHAPYLAHQGWYDITKAFDGKDNLLCGAATAGNMLHWWFDQNKTEIEAYLSKHPEKQKIIFNNQELFDLKRAINDKDSQQNSELFNYFRDKAFPNLSARQLGVMPDLVLDMFINGYYLNVFKTQSTDVNRPYQDKDKRGGIFDAVFTRGDQTTLLTARHDLKNKGLNDISTIIKQELTEGRALALSHTYANVSISHVINLWGADFNAEGNLEAIYVTDSDANASIGMKKYFVGINAHGHVAISAKKIEGENIGAQVLGLFTLSSGKDIWQKLSLEHHHHHH
B6: PRT-653 (protein)
chain: MQITSVWTKGVTPLTPEQFRYNNEDVIHAPYLAHQGWYDITKAFDGKDNLLCGAATAGNMLHWWFDQNKTEIEAYLSKHPEKQKIIFNNQELFDLKAAIDTKDSQTNSQLFNYFRDKAFPNLSARQLGVMPDLVLDMFINGYYLNVFKTQSTDVNRPYQDKDKRGGIFDAVFTRGDQTTLLTARHDLKNKGLNDISTIIKQELTEGRALALSHTYGNVRSSHVINLWGADFNAEGNLEAIYVTDSDANASIGMKKYFVGINAHGHVAISAKKIEGENVGAQVLGLFTLSSGKDIWQKLSLEHHHHHH
B7: PRT-557 (protein)
chain: MANQEIRYSEEDGKTITSVWTKGVTPPTDFQKNEDVYHAPYVANQGWYDITKTFNGKDDLLCGAATAGNMLHWWFDQNKEEIERYLKKHPEKQKINFNGEQMFDVKEAIDTKDSQTDSALFEYFKDKAFPYLSTKHLGVFPDHVIDMFINGYRLSLTNHGPTPVKDGTKDPRGGIFDAVFTRGDQTKLLTERHDFKEKTLNEISDLIKQELQEGKALGLSHTYANVRINHVINLWGADFDSEGNLEAIYVTDSDSNASIGMKKYYVGVNSAGKVAISAKEIEDDNIGAQVLGLFTLSTGKDIWEQTNLEHHHHHH
B8: PRT-664 (protein)
chain: MQITSVWTKGVTPLTPEQFRYNNEDVIHAPYLPHQGWYDITKAFDGKDNLLCGAATAGNMLHWWFDQNKTEIEAYLSKHPEKQKIIFNNQELFDLRAAINTKDSQTNSALFNYFRDKAFPNLSARQLGVMPDLVLDMFINGYYLNVFKTQSTDVNRPYQDKDKRGGIFDAVFTRGDQTTLLTARHDLKNKGLNDISTLIKQELTEGKALALSHTYANVSISHVINLWGADFNAEGNLEAIYVTDSDSDASIGMKKYYVGINASGHVAISAKKIEGENIGAQVLGLFTLSSGKDIWQKLSLEHHHHHH
B9: PRT-84 (protein)
chain: MANQEIRYSEETPYTVTSVWTKGVTPPTQFIQGEDVFHAPYKANQGWYDITKTFNGKDNLLCGAATAGNMLHWWFDQNKEYIEAYLKKHPEKQKIMFGDQELLDVRKVINTKDSQTDSKLFNYFKDKAFPNLSARRLGVMPDLVLDMFINGYYLNVGKTQTTDVNRTYQEKDKRGGIFDAVFTRGDQSKLLTSRHDFKEKSLKEISDLIKKELTEGKALGLSHTYANVRINHVINLWGADFDSEGNLKAIYVTDSDSDASIGMKKYFVGVNSSGKVAISAKEIEEDNIGAQVLGLFTLSSGQDIWNQTN
B10: PRT-85 (protein)
chain: MANQEIRYSEVTPKTITSVWTKGVTPPADFTQGEDVFHAPYKPNQGWYDINKTFNGKDNLLCGAATAGNMLHWWFDQNKEQIEAYLKKHPEKQKIMFGDQELLDVRKAINTKDDQTDSKLFNYFKDKAFPNLSARRLGVMPDHVLDMFINGYRLNVTKTQTTDVNRTYQTKDKRGGFFDAVFTRGDQSKLLTNRHDFKEKNLKEISDLIKKELTEGKALGLSHTYANVRINHVINLWGADFDSEGNLKAIYVTDSDSNASIGMKKYYVGVNSAGKVAISAKEIKGENIGAQVLGLYTLSTGQDIWNQTN
B11: PRT-674 (protein)
chain: MQITSVWTKGVTPPTMEQFRYNNYDVFHAPYLPGQGWYDITKAFDGGDNLLCGAATAGNMLHWWFDQNKEEIEAYLSKYPEKQKIIFNNQELFDLRKAINSKDSQTNSELFNYFRDKAFGNLSARQKGVMPDLVLDMFINGYYLNLNKTQSTDVNRPYQDPDKRGGIFDDVFKEGDQTKLLTARHDLSNGGLDDISTIIKQELQSGRALALSHTYANVSYSHVINLWGADFDAEGNLEAIYVTDSDDDQSIGMKKYKVGKNASGHVRISAKKIEDENIGAQVLGLFTLSLGKEIWQKLSLEHHHHHH
B12: PRT-570 (protein)
chain: MANQEIRYSEATPSHITSVWTKGVTPPEQFIQNEDVLHAPYIANQGWYDITKTFNGKDDLLCGAATAGNMLHWWFDQNKEQIEAYLKKHPEKQKINFNGEQMFDVKEAIDTKDSQTDSALFNYFKDKAFPYLSTKHLGVFPDHVIDMFINGYRLSLTNHGPTPVKEQTKDPRGGIFDAVFTRGDQSKLLTSRHDFKEKTLKEISQLIKQELTEGKALGLSHTYANVRINHVINLWGADFNAEGNLEAIYVTDSDSNASIGMKKYYVGVNSAGKVAISAKEIEGDNIGAQVLGLFTLSTGQDIWQQTNLEHHHHHH
B13: PRT-672 (protein)
chain: MQITSVWTKGVTPPTPEQFTYQNEDVFHAPYIANQGWYDITKTFNGKDNLLCGAATAGNMLHWWFDQNKTEIENYLKKHPEKQKIIFNNQEMFDLRKAINTKDSQTNSALFEYFRDKAFPNLSARQLGVMPDHVLDMFINGYYLNVTKTQSTDVNRPYQTKDKRGGIFDHVFTRGDQSKLLTARHDLKNKTLNEISDLIKQELTEGKALALSHTYANVRINHVINLWGADFDAEGNLEAIYVTDSDSNASIGMKKYFVGVNSSGKVAISAKKIEDDNIGAQVLGLFTLSSGQDIWEQLSLEHHHHHH

For this series, the target named is pooled human IgG (human IgG1,2,3 and 4).
B1 yielded an Enzyme activity endpoint: Fab′2 of 852 ng/µL, an Enzyme activity endpoint: Fc of 465 ng/µL, an Enzyme activity endpoint: IgG of 0 ng/µL and an Enzyme activity endpoint: scIgG of 0 ng/µL.

In the case of B2, the Enzyme activity endpoint: Fab′2 amounted to 693 ng/µL, the Enzyme activity endpoint: Fc was determined as 327 ng/µL, the Enzyme activity endpoint: IgG is 34 ng/µL and the Enzyme activity endpoint: scIgG was 54 ng/µL.

For the protein B3, the Enzyme activity endpoint: Fab′2 worked out at 182 ng/µL, the Enzyme activity endpoint: Fc turned out to be 206 ng/µL, the Enzyme activity endpoint: IgG amounted to 417 ng/µL and the Enzyme activity endpoint: scIgG is 619 ng/µL.

As for B4, the Enzyme activity endpoint: Fab′2 came to 410 ng/µL, the Enzyme activity endpoint: Fc is 0 ng/µL, the Enzyme activity endpoint: IgG is 789 ng/µL and the Enzyme activity endpoint: scIgG amounted to 12 ng/µL.

Take B5: the Enzyme activity endpoint: Fab′2 was determined as 841 ng/µL, the Enzyme activity endpoint: Fc was found to be 540 ng/µL, the Enzyme activity endpoint: IgG stood at 0 ng/µL and the Enzyme activity endpoint: scIgG was found to be 319 ng/µL.

Regarding B6, the Enzyme activity endpoint: Fab′2 was 1350 ng/µL, the Enzyme activity endpoint: Fc was 0 ng/µL, the Enzyme activity endpoint: IgG was determined as 2350 ng/µL and the Enzyme activity endpoint: scIgG is 0 ng/µL.

Regarding B7, the Enzyme activity endpoint: Fab′2 stood at 512 ng/µL, the Enzyme activity endpoint: Fc was 410 ng/µL, the Enzyme activity endpoint: IgG stood at 0 ng/µL and the Enzyme activity endpoint: scIgG was 194 ng/µL.

The protein B8 returned an Enzyme activity endpoint: Fab′2 of 703 ng/µL, an Enzyme activity endpoint: Fc of 419 ng/µL, an Enzyme activity endpoint: IgG of 0 ng/µL and an Enzyme activity endpoint: scIgG of 0 ng/µL.

B9 registered an Enzyme Activity Endpoint Assay: Fab′2 of 8 ng/µL, an Enzyme Activity Endpoint Assay: Fc of 67 ng/µL, an Enzyme Activity Endpoint Assay: IgG of 27 ng/µL and an Enzyme Activity Endpoint Assay: scIgG of 51 ng/µL.

As to B10, the Enzyme Activity Endpoint Assay: Fab′2 amounted to 0 ng/µL, the Enzyme Activity Endpoint Assay: Fc stood at 0 ng/µL, the Enzyme Activity Endpoint Assay: IgG was 109 ng/µL and the Enzyme Activity Endpoint Assay: scIgG turned out to be 0 ng/µL.

The protein B11 showed an Enzyme activity endpoint: Fab′2 of 462 ng/µL, an Enzyme activity endpoint: Fc of 0 ng/µL, an Enzyme activity endpoint: IgG of 891 ng/µL and an Enzyme activity endpoint: scIgG of 12 ng/µL.

As for B12, the Enzyme activity endpoint: Fab′2 turned out to be 551 ng/µL, the Enzyme activity endpoint: Fc amounted to 126 ng/µL, the Enzyme activity endpoint: IgG came to 0 ng/µL and the Enzyme activity endpoint: scIgG came to 0 ng/µL.

The protein B13 yielded an Enzyme activity endpoint: Fab′2 of 775 ng/µL, an Enzyme activity endpoint: Fc of 443 ng/µL, an Enzyme activity endpoint: IgG of 73 ng/µL and an Enzyme activity endpoint: scIgG of 0 ng/µL.
